{"source": "patent US20240192215A1", "key": {"[1]": {"molecular_target": "Human_IgG", "assay": "microarray control spot; secondary antibody after B264 0.04 ug/mL"}, "[2]": {"molecular_target": "Full-length mouse IgG", "assay": "microarray control spot; secondary antibody after B264 0.04 ug/mL"}, "[3]": {"molecular_target": "Human_IgG", "assay": "microarray control spot; secondary antibody after B264 1 ug/mL"}, "[4]": {"molecular_target": "Full-length mouse IgG", "assay": "microarray control spot; secondary antibody after B264 1 ug/mL"}, "[5]": {"molecular_target": "Human_IgG", "assay": "microarray control spot; secondary antibody after B264, head 0.08 ug (text 0.008 ug/mL)"}, "[6]": {"molecular_target": "Full-length mouse IgG", "assay": "microarray control spot; secondary antibody after B264, head 0.08 ug (text 0.008 ug/mL)"}, "[7]": {"molecular_target": "Human_IgG", "assay": "microarray control spot; secondary antibody after B266-1 1 ug/mL"}, "[8]": {"molecular_target": "Full-length mouse IgG", "assay": "microarray control spot; secondary antibody after B266-1 1 ug/mL"}, "[9]": {"molecular_target": "Human_IgG", "assay": "microarray control spot; secondary antibody after B266-1 5 ug/mL"}, "[10]": {"molecular_target": "Full-length mouse IgG", "assay": "microarray control spot; secondary antibody after B266-1 5 ug/mL"}, "[11]": {"molecular_target": "Human_IgG", "assay": "microarray control spot; secondary antibody after B264 0.2 ug/mL"}, "[12]": {"molecular_target": "Full-length mouse IgG", "assay": "microarray control spot; secondary antibody after B264 0.2 ug/mL"}, "[13]": {"molecular_target": "Human_IgG", "assay": "microarray control spot; secondary antibody after B266-1 0.0016 ug/mL"}, "[14]": {"molecular_target": "Full-length mouse IgG", "assay": "microarray control spot; secondary antibody after B266-1 0.0016 ug/mL"}, "[15]": {"molecular_target": "Human_IgG", "assay": "microarray control spot; secondary antibody after B264 5 ug/mL"}, "[16]": {"molecular_target": "Full-length mouse IgG", "assay": "microarray control spot; secondary antibody after B264 5 ug/mL"}, "[17]": {"molecular_target": "T1, Peptide_044 (human)", "T1 sequence (peptide)": "FSATWCGPCKMIKPF", "assay": "peptide microarray, secondary antibody only"}, "[18]": {"molecular_target": "T2, Peptide_096 (human)", "T2 sequence (peptide)": "FFKKGQKVGEFSGAN", "assay": "peptide microarray, secondary antibody only"}, "[19]": {"molecular_target": "T3, Peptide_097 (human)", "T3 sequence (peptide)": "FKKGQKVGEFSGANK", "assay": "peptide microarray, secondary antibody only"}, "[20]": {"molecular_target": "T4, Peptide_051 (human)", "T4 sequence (peptide)": "PCKMIKPFFHSLSEK", "assay": "peptide microarray, secondary antibody only"}, "[21]": {"molecular_target": "T5, Peptide_092 (human)", "T5 sequence (peptide)": "PTFQFFKKGQKVGEF", "assay": "peptide microarray, secondary antibody only"}, "[22]": {"molecular_target": "Human_IgG", "assay": "microarray control spot; secondary antibody after B266-1 0.04 ug/mL"}, "[23]": {"molecular_target": "Full-length mouse IgG", "assay": "microarray control spot; secondary antibody after B266-1 0.04 ug/mL"}, "[24]": {"molecular_target": "Human_IgG", "assay": "microarray control spot; secondary antibody after B264 0.0016 ug/mL"}, "[25]": {"molecular_target": "Full-length mouse IgG", "assay": "microarray control spot; secondary antibody after B264 0.0016 ug/mL"}, "[26]": {"molecular_target": "Human_IgG", "assay": "microarray control spot; secondary antibody after B266-1 0.2 ug/mL"}, "[27]": {"molecular_target": "Full-length mouse IgG", "assay": "microarray control spot; secondary antibody after B266-1 0.2 ug/mL"}, "[28]": {"molecular_target": "Human_IgG", "assay": "microarray control spot; secondary antibody after B266-1, head 0.08 ug (text 0.008 ug/mL)"}, "[29]": {"molecular_target": "Full-length mouse IgG", "assay": "microarray control spot; secondary antibody after B266-1, head 0.08 ug (text 0.008 ug/mL)"}, "[30]": {"molecular_target": "Human_IgG", "assay": "microarray control spot; secondary antibody only"}, "[31]": {"molecular_target": "Full-length mouse IgG", "assay": "microarray control spot; secondary antibody only"}}, "data": [{"substance": "fluorescence-labeled secondary anti-mouse-IgG antibody (anti-mouse IgG(H+L) (Thermo 84545))", "values": [{"measurement": "signal (blank-control = 1)", "setting": "[1]", "value": 48.1}, {"measurement": "signal (blank-control = 1)", "setting": "[2]", "value": 69.5}, {"measurement": "signal (blank-control = 1)", "setting": "[3]", "value": 20.8}, {"measurement": "signal (blank-control = 1)", "setting": "[4]", "value": 24.5}, {"measurement": "signal (blank-control = 1)", "setting": "[5]", "value": 52.6}, {"measurement": "signal (blank-control = 1)", "setting": "[6]", "value": 76.3}, {"measurement": "signal (blank-control = 1)", "setting": "[7]", "value": 52.8}, {"measurement": "signal (blank-control = 1)", "setting": "[8]", "value": 65.4}, {"measurement": "signal (blank-control = 1)", "setting": "[9]", "value": 35.8}, {"measurement": "signal (blank-control = 1)", "setting": "[10]", "value": 47}, {"measurement": "signal (blank-control = 1)", "setting": "[11]", "value": 36.3}, {"measurement": "signal (blank-control = 1)", "setting": "[12]", "value": 46}, {"measurement": "signal (blank-control = 1)", "setting": "[13]", "value": 35.4}, {"measurement": "signal (blank-control = 1)", "setting": "[14]", "value": 84.8}, {"measurement": "signal (blank-control = 1)", "setting": "[15]", "value": 6.7}, {"measurement": "signal (blank-control = 1)", "setting": "[16]", "value": 7.16}, {"measurement": "signal (blank-control = 1)", "setting": "[17]", "value": 1.73}, {"measurement": "signal (blank-control = 1)", "setting": "[18]", "value": 1.18}, {"measurement": "signal (blank-control = 1)", "setting": "[19]", "value": 1.34}, {"measurement": "signal (blank-control = 1)", "setting": "[20]", "value": 0.47}, {"measurement": "signal (blank-control = 1)", "setting": "[21]", "value": 2.28}, {"measurement": "signal (blank-control = 1)", "setting": "[22]", "value": 49.7}, {"measurement": "signal (blank-control = 1)", "setting": "[23]", "value": 79.7}, {"measurement": "signal (blank-control = 1)", "setting": "[24]", "value": 45.7}, {"measurement": "signal (blank-control = 1)", "setting": "[25]", "value": 74.5}, {"measurement": "signal (blank-control = 1)", "setting": "[26]", "value": 49.6}, {"measurement": "signal (blank-control = 1)", "setting": "[27]", "value": 71.4}, {"measurement": "signal (blank-control = 1)", "setting": "[28]", "value": 47.9}, {"measurement": "signal (blank-control = 1)", "setting": "[29]", "value": 74.6}, {"measurement": "signal (blank-control = 1)", "setting": "[30]", "value": 46.6}, {"measurement": "signal (blank-control = 1)", "setting": "[31]", "value": 54.6}]}]}
